Experimental data as given in publication PMC9361535.
Values belong to the substance of their own block, whether it stands above or below them.

Tests used:
Experiment in all cases: GFP-Trap pulldown, quantitative mass spectrometry (iBAQ)
MSRB3 = conditions: cytoplasmic fraction of HeLa cells; read off a plot
PHLDA2 = conditions: cytoplasmic fraction of HeLa cells; read off a plot
CBS = conditions: cytoplasmic fraction of HeLa cells; read off a plot
SPRYD3 = conditions: cytoplasmic fraction of HeLa cells; read off a plot
HSPA6/7 = conditions: cytoplasmic fraction of HeLa cells; read off a plot
DNAJA1 = conditions: cytoplasmic fraction of HeLa cells; read off a plot
WDR5 = WDR5 (UniProt P61964); conditions: nuclear extracts of HeLa cells; read off a plot
DPY30 = DPY30 (UniProt Q9C005); conditions: nuclear extracts of HeLa cells; read off a plot
KMT2A = KMT2A (UniProt Q03164); conditions: nuclear extracts of HeLa cells, read off a plot
HCFC2 = HCFC2 (UniProt Q9Y5Z7); conditions: nuclear extracts of HeLa cells; read off a plot
JunD = JunD (UniProt P17535); conditions: nuclear extracts of HeLa cells, read off a plot
PSIP1 = PSIP1 (UniProt O75475); conditions: nuclear extracts of HeLa cells; read off a plot
KMT2B = KMT2B (UniProt Q9UMN6); conditions: nuclear extracts of HeLa cells; read off a plot
ubiquitin = ubiquitin (UniProt P62979); conditions: cytoplasmic fraction of HeLa cells; read off a plot
RBBP5 = RBBP5 (UniProt Q15291); conditions: nuclear extracts of HeLa cells; read off a plot
HSPA8 = HSPA8 (UniProt P11142); conditions: cytoplasmic fraction of HeLa cells; read off a plot
ASH2L = ASH2L (UniProt Q9UBL3); conditions: nuclear extracts of HeLa cells; read off a plot

Sequence of KMT2A (Q03164 whole entry): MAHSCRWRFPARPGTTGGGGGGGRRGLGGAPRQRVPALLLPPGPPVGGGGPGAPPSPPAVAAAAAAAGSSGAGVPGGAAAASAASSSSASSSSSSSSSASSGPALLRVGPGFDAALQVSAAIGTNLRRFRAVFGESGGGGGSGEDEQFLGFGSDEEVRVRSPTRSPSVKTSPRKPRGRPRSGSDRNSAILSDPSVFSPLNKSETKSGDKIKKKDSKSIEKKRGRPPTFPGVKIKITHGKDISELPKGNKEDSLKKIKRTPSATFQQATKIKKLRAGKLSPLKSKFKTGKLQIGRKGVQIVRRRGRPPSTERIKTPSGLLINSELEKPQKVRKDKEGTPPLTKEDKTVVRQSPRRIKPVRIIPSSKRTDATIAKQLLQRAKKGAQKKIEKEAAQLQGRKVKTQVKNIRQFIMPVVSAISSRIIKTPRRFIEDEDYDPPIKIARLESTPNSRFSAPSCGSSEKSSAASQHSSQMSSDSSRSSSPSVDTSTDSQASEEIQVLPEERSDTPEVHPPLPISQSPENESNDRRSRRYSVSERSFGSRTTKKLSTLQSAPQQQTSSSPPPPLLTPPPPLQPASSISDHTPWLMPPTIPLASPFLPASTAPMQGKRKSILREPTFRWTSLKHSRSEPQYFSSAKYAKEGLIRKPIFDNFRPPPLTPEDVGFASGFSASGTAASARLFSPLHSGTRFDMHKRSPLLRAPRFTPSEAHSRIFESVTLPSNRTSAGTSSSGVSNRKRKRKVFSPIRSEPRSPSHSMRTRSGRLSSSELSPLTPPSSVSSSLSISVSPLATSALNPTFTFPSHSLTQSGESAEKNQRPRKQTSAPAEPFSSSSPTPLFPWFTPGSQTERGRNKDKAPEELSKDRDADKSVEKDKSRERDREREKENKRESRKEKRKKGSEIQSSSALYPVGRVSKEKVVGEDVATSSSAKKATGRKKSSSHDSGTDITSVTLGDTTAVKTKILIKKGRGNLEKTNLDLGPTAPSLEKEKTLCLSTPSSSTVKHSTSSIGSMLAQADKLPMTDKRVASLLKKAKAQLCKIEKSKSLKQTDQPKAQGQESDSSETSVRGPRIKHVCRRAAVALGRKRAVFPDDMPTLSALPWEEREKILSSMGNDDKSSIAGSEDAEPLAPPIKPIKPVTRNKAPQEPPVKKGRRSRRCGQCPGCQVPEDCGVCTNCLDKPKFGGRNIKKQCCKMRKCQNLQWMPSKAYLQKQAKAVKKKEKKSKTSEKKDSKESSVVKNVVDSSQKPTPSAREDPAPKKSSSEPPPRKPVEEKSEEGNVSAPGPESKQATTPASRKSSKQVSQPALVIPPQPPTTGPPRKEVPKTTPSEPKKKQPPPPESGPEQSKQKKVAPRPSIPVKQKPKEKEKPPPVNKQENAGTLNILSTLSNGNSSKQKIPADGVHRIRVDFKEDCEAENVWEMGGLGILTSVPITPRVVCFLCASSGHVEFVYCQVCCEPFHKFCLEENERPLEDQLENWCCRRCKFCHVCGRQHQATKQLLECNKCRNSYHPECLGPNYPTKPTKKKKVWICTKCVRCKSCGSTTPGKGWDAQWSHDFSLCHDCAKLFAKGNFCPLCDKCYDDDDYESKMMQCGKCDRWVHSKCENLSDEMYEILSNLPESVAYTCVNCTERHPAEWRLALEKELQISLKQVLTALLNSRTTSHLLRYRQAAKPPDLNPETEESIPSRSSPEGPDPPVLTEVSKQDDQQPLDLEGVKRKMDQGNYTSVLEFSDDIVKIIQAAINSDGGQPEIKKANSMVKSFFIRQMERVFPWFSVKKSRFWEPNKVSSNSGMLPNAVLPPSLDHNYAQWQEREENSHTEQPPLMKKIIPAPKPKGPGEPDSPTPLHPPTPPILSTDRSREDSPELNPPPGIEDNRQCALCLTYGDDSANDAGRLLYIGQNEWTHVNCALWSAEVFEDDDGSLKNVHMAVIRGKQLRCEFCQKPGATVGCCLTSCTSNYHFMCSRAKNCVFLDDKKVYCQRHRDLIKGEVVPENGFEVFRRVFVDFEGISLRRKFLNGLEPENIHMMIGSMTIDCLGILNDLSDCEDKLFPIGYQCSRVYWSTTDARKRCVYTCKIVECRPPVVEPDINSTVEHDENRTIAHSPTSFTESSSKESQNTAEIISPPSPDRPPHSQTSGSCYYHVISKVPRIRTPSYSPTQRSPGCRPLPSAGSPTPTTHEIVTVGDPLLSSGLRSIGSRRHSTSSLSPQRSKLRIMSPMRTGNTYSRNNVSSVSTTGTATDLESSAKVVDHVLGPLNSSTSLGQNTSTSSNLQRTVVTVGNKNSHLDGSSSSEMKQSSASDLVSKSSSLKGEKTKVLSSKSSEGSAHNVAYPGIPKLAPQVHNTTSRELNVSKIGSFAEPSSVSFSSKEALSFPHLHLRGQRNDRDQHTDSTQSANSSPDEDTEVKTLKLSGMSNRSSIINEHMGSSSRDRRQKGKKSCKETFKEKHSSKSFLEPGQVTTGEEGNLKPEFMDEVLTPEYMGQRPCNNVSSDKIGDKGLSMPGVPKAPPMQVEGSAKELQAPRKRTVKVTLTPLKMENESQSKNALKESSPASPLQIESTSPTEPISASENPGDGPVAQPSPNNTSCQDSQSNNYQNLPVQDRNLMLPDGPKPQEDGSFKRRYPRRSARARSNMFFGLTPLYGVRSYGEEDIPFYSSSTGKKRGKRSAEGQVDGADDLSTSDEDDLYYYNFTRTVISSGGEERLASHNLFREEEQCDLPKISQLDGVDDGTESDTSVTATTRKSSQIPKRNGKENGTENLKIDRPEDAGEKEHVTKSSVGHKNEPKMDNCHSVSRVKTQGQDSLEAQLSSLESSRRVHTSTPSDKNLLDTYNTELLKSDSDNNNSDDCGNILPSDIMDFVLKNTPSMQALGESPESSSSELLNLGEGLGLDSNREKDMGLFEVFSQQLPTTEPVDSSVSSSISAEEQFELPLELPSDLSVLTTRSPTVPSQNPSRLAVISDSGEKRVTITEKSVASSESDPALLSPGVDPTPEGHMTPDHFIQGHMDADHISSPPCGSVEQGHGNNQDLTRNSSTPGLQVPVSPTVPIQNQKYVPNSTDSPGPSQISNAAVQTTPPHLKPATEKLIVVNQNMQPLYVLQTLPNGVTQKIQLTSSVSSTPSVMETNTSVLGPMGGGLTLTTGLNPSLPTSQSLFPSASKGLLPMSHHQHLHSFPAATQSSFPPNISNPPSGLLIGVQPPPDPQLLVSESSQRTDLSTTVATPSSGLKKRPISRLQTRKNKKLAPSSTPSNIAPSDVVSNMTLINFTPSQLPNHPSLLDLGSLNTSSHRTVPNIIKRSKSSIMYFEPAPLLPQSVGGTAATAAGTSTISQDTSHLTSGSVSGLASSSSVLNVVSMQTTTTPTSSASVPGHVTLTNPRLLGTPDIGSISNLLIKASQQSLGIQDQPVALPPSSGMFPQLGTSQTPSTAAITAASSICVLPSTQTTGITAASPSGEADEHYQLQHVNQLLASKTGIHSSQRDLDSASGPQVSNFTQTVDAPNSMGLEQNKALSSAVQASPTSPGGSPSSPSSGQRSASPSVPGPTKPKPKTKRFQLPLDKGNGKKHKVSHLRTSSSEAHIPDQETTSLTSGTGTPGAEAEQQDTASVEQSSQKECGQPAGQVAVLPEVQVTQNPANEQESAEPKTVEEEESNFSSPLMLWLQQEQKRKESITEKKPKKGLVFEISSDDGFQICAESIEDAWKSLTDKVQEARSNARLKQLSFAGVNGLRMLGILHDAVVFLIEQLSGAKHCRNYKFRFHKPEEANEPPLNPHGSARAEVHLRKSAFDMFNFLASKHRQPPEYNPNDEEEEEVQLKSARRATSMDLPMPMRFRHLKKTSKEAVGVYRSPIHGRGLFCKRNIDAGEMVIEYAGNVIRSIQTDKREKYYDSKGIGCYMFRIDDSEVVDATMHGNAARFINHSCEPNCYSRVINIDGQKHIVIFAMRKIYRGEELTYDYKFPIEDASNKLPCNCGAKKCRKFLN
Sequence of JunD (P17535 whole entry): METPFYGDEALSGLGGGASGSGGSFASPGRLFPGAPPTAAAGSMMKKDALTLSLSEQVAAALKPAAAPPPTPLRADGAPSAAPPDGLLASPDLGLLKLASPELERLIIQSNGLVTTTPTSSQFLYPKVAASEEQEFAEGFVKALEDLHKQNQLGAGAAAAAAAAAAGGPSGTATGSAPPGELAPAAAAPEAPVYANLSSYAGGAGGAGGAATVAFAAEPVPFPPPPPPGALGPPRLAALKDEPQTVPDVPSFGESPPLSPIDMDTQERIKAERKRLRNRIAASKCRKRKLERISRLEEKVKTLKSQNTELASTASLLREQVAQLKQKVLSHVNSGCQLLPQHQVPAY
Sequence of PSIP1 (O75475 whole entry): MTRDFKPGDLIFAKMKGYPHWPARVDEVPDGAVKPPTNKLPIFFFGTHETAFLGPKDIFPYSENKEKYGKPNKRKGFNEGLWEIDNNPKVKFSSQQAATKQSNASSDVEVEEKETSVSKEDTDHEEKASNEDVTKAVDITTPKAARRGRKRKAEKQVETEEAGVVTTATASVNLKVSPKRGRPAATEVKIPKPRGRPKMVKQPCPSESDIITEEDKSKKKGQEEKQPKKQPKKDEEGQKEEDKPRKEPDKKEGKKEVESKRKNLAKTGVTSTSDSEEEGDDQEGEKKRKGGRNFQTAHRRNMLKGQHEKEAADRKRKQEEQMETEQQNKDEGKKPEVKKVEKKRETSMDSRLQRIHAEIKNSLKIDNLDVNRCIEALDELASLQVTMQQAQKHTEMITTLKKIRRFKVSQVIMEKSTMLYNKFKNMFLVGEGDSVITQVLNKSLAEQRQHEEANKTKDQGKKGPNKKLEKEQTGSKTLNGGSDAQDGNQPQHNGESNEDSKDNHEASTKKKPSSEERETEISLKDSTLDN
Sequence of DPY30 (Q9C005 whole entry): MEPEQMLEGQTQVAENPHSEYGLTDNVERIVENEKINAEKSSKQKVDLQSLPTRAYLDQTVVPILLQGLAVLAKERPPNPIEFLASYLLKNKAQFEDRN

Substance: WT menin-GFP (from UniProt O00255-2) E359K
- other: stoichiometry (MSRB3): 0.22

Substance: WT menin-GFP (from UniProt O00255-2) E366D
- other: stoichiometry (PHLDA2): 0.06
- other: stoichiometry (MSRB3): 0.055

Substance: WT menin-GFP (from UniProt O00255-2) E408Q
- other: stoichiometry (PHLDA2): 0.12
- other: stoichiometry (MSRB3): 0.095
- other: stoichiometry (CBS): 0.055

Substance: WT menin-GFP (from UniProt O00255-2) R52G
- other: stoichiometry (PHLDA2): 0.09
- other: stoichiometry (MSRB3): 0.05

Substance: WT menin-GFP (from UniProt O00255-2) R322H
- other: stoichiometry (WDR5): 0.046
- other: stoichiometry (DPY30): 0.23
- other: stoichiometry (PHLDA2): 0.045
- ratio to parent (KMT2A; parent: est. 1.0): 0.8
- other: stoichiometry (KMT2A): 0.028
- other: stoichiometry (HCFC2): 0.014
- ratio to parent (JunD; parent: est. 1.0): 0.53
- other: stoichiometry (JunD): 0.053
- other: stoichiometry (MSRB3): 0.045
- other: stoichiometry (PSIP1): 0.014
- other: stoichiometry (KMT2B): 0.068
- other: stoichiometry (ubiquitin): 0.35
- other: stoichiometry (RBBP5): 0.076
- other: stoichiometry (HSPA8): 0.26
- other: stoichiometry (ASH2L): 0.06

Other lines, results leading:

- other: stoichiometry (SPRYD3): 0.04
- other: stoichiometry (HSPA6/7): 0.075
- other: stoichiometry (DNAJA1): 0.045
Substance: WT menin-GFP (from UniProt O00255-2) L168P

- other: stoichiometry (HSPA6/7): 0.11
Substance: WT menin-GFP (from UniProt O00255-2) L264P

- other: stoichiometry (MSRB3): 0.055
- other: stoichiometry (HSPA6/7): 0.04
Substance: WT menin-GFP (from UniProt O00255-2) Q141R
